Source: patent publication US8840891 (RSR, dated 2014)
Where two headings read alike, the source gives them in different places.

Tests used:
[1] = biological target: wild type human TSHR (thyrotropin receptor) expressed on CHO cells (human) (UniProt P16473); assay: cell-based or functional assay
[2] = biological target: TSHR with Lys250 mutated to Alanine expressed on CHO cells (human) (UniProt P16473); assay: cell-based or functional assay
[3] = biological target: human TSHR, wild type, expressed on CHO cells (human) (UniProt P16473); assay: cell-based or functional assay
[4] = biological target: TSHR coated onto tubes (TSHR coated tubes) (human) (UniProt P16473); assay: TSHR coated tubes, in presence of HBD pool
[5] = biological target: wild type human TSHR (thyrotropin receptor) expressed on CHO cells (human) (UniProt P16473); assay: cell-based or functional assay; remark: listed apart in the source
[6] = biological target: TSHR with Lys209 mutated to Alanine expressed on CHO cells (human) (UniProt P16473); assay: cell-based or functional assay
[7] = biological target: wild type human TSHR (thyrotropin receptor) expressed on CHO cells (human) (UniProt P16473); assay: cell-based or functional assay; remark: listed apart in the source
[8] = biological target: TSHR with Arg274 mutated to Alanine expressed on CHO cells (human) (UniProt P16473); assay: cell-based or functional assay

Cyclic AMP produced; 5C9 0.01 µg/mL + TSH (fmol/cell well) [1]: 15200
Cyclic AMP produced; 5C9 0.1 µg/mL + TSH (fmol/cell well) [1]: 6300
Cyclic AMP produced; 5C9 1.0 µg/mL + TSH (fmol/cell well) [1]: 643
Cyclic AMP produced; 5C9 10 µg/mL + TSH (fmol/cell well) [1]: 286
Cyclic AMP produced; 5C9 100 µg/mL + TSH (fmol/cell well) [1]: 158
Cyclic AMP produced; 5C9 100 µg/mL only (fmol/cell well) [1]: 458
Cyclic AMP produced; 5C9 0.01 µg/mL + TSH (fmol/cell well) [2]: 14500
Cyclic AMP produced; 5C9 0.1 µg/mL + TSH (fmol/cell well) [2]: 8490
Cyclic AMP produced; 5C9 1.0 µg/mL + TSH (fmol/cell well) [2]: 2570
Cyclic AMP produced; 5C9 10 µg/mL + TSH (fmol/cell well) [2]: 862
Cyclic AMP produced; 5C9 100 µg/mL + TSH (fmol/cell well) [2]: 96
Cyclic AMP produced; 5C9 100 µg/mL only (fmol/cell well) [2]: 448
Mutated/wild type (%); 5C9 0.01 µg/mL + TSH [2]: 95%
Mutated/wild type (%); 5C9 0.1 µg/mL + TSH [2]: 135%
Mutated/wild type (%); 5C9 1.0 µg/mL + TSH [2]: 399%
Mutated/wild type (%); 5C9 10 µg/mL + TSH [2]: 301%
Mutated/wild type (%); 5C9 100 µg/mL + TSH [2]: 61%
Mutated/wild type (%); 5C9 100 µg/mL only [2]: 98%
cyclic AMP; Exp 1; 5C9 0.01 µg/mL + M22 3 ng/mL [3]: 48.1 pmol/mL
cyclic AMP; Exp 1; 5C9 0.1 µg/mL + M22 3 ng/mL [3]: 6 pmol/mL
cyclic AMP; Exp 1; 5C9 1 µg/mL + M22 3 ng/mL [3]: 0.93 pmol/mL
cyclic AMP; Exp 1; 5C9 10 µg/mL + M22 3 ng/mL [3]: 0.36 pmol/mL
cyclic AMP; Exp 1; 5C9 100 µg/mL + M22 3 ng/mL [3]: 0.35 pmol/mL
cyclic AMP; Exp 1; 5C9 100 µg/mL only [3]: 0.35 pmol/mL
cyclic AMP; Exp 2; 5C9 0.001 µg/mL + M22 3 ng/mL [3]: 63.3 pmol/mL
cyclic AMP; Exp 2; 5C9 0.01 µg/mL + M22 3 ng/mL [3]: 57.3 pmol/mL
cyclic AMP; Exp 2; 5C9 0.1 µg/mL + M22 3 ng/mL [3]: 4.17 pmol/mL
cyclic AMP; Exp 2; 5C9 10 µg/mL + M22 3 ng/mL [3]: 0.14 pmol/mL
cyclic AMP; Exp 2; 5C9 100 µg/mL only [3]: 0.69 pmol/mL
cyclic AMP; Exp 2; 5C9 + M22 3 ng/mL [3]: 2.54 pmol/mL
cyclic AMP; Exp 3; 5C9 0.001 µg/mL + M22 0.3 ng/mL [3]: 13.3 pmol/mL
cyclic AMP; Exp 3; 5C9 0.01 µg/mL + M22 0.3 ng/mL [3]: 13.1 pmol/mL
cyclic AMP; Exp 3; 5C9 0.1 µg/mL + M22 0.3 ng/mL [3]: 1.43 pmol/mL
cyclic AMP; Exp 3; 5C9 1 µg/mL + M22 0.3 ng/mL [3]: 0.02 pmol/mL
cyclic AMP; Exp 3; 5C9 10 µg/mL + M22 0.3 ng/mL [3]: 0.2 pmol/mL
cyclic AMP; Exp 3; 5C9 100 µg/mL + M22 0.3 ng/mL [3]: 0.05 pmol/mL
cyclic AMP; Exp 3; 5C9 100 µg/mL only [3]: 0.58 pmol/mL
cyclic AMP; Exp 4; 5C9 0.001 µg/mL + M22 0.3 ng/mL [3]: 33.1 pmol/mL
cyclic AMP; Exp 4; 5C9 0.01 µg/mL + M22 0.3 ng/mL [3]: 31.5 pmol/mL
cyclic AMP; Exp 4; 5C9 0.1 µg/mL + M22 0.3 ng/mL [3]: 6 pmol/mL
cyclic AMP; Exp 4; 5C9 1 µg/mL + M22 0.3 ng/mL [3]: 0.21 pmol/mL
cyclic AMP; Exp 4; 5C9 10 µg/mL + M22 0.3 ng/mL [3]: 0.4 pmol/mL
cyclic AMP; Exp 4; 5C9 100 µg/mL + M22 0.3 ng/mL [3]: 0.22 pmol/mL
cyclic AMP; Exp 4; 5C9 100 µg/mL only [3]: 0.12 pmol/mL
% binding of labelled tracer [4]: 20%
Cyclic AMP produced; 5C9 0.01 µg/mL + TSH (fmol/cell well) [5]: 15400
Cyclic AMP produced; 5C9 0.1 µg/mL + TSH (fmol/cell well) [5]: 4700
Cyclic AMP produced; 5C9 1.0 µg/mL + TSH (fmol/cell well) [5]: 1180
Cyclic AMP produced; 5C9 10 µg/mL + TSH (fmol/cell well) [5]: 984
Cyclic AMP produced; 5C9 100 µg/mL + TSH (fmol/cell well) [5]: 602
Cyclic AMP produced; 5C9 100 µg/mL only (fmol/cell well) [5]: 272
Cyclic AMP produced; 5C9 0.01 µg/mL + TSH (fmol/cell well) [6]: 5960
Cyclic AMP produced; 5C9 0.1 µg/mL + TSH (fmol/cell well) [6]: 278
Cyclic AMP produced; 5C9 1.0 µg/mL + TSH (fmol/cell well) [6]: 360
Cyclic AMP produced; 5C9 10 µg/mL + TSH (fmol/cell well) [6]: 482
Cyclic AMP produced; 5C9 100 µg/mL + TSH (fmol/cell well) [6]: 354
Cyclic AMP produced; 5C9 100 µg/mL only (fmol/cell well) [6]: 280
Mutated/wild type (%); 5C9 0.01 µg/mL + TSH [6]: 39%
Mutated/wild type (%); 5C9 0.1 µg/mL + TSH [6]: 6%
Mutated/wild type (%); 5C9 1.0 µg/mL + TSH [6]: 30%
Mutated/wild type (%); 5C9 10 µg/mL + TSH [6]: 49%
Mutated/wild type (%); 5C9 100 µg/mL + TSH [6]: 59%
Mutated/wild type (%); 5C9 100 µg/mL only [6]: 103%
Cyclic AMP produced; 5C9 0.01 µg/mL + TSH (fmol/cell well) [7]: 16300
Cyclic AMP produced; 5C9 0.1 µg/mL + TSH (fmol/cell well) [7]: 5000
Cyclic AMP produced; 5C9 1.0 µg/mL + TSH (fmol/cell well) [7]: 808
Cyclic AMP produced; 5C9 10 µg/mL + TSH (fmol/cell well) [7]: 684
Cyclic AMP produced; 5C9 100 µg/mL + TSH (fmol/cell well) [7]: 246
Cyclic AMP produced; 5C9 100 µg/mL only (fmol/cell well) [7]: 111
Cyclic AMP produced; 5C9 0.01 µg/mL + TSH (fmol/cell well) [8]: 9560
Cyclic AMP produced; 5C9 0.1 µg/mL + TSH (fmol/cell well) [8]: 1320
Cyclic AMP produced; 5C9 1.0 µg/mL + TSH (fmol/cell well) [8]: 177
Cyclic AMP produced; 5C9 10 µg/mL + TSH (fmol/cell well) [8]: 108
Cyclic AMP produced; 5C9 100 µg/mL + TSH (fmol/cell well) [8]: 17
Cyclic AMP produced; 5C9 100 µg/mL only (fmol/cell well) [8]: 34
Mutated/wild type (%); 5C9 0.01 µg/mL + TSH [8]: 58%
Mutated/wild type (%); 5C9 0.1 µg/mL + TSH [8]: 26%
Mutated/wild type (%); 5C9 1.0 µg/mL + TSH [8]: 22%
Mutated/wild type (%); 5C9 10 µg/mL + TSH [8]: 16%
Mutated/wild type (%); 5C9 100 µg/mL + TSH [8]: 7%
Mutated/wild type (%); 5C9 100 µg/mL only [8]: 31%
B1: 5C9 IgG (human monoclonal autoantibody to the TSHR) (antibody, from another filing, V domains shown)
VH: EVQLVESGGGLIQPGGSLRLSCAASGFTVSSNYMSWVRQAPGKGLEWVSVTYSGGSTSYADSVKGRFTISRDNSKNTLYLQMNSLRAEDTAVYYCARGGRYCSSISCYARSGCDYWGQGTLVTVSS
VL: AIQMTQSPSSLSASVGDRVTITCRASQSISNYLNWYQQKPGKAPKLLIYAASSLQSGVPSRFSGSGSGTDFTLTISSLQPEDFATYYCQQSYSSPSTTFGQGTKLEIK
